# Experiments:
# Slo-1/BKB3 = target: T1, Slo-1/BKB3 (Homo sapiens, UniProt Q12791); test: Whole-cell voltage-clamp of membrane currents in HEK293 cells co-expressing Slo-1 and BK beta 3; format: cell-based; conditions: for sensitivity (block) of membrane currents: CTX 100 nM
# T1 construct: expressed in transfected cells; host or cells: HEK293
# Method: (§1) FIG. 6. Slo-1/BKB3 forms BK type II-like charybdotoxin-(CTX) insensitive channels. Slo-1 (A) or Slo-1+BK beta 3 (B) were expressed in HEK293 cells and membrane currents measured using the whole-cell voltage-clamp technique. […]. In contrast, membrane currents in cells co-expressing Slo-1 and BK beta 3 were TEA (5 mM) sensitive but CTX (100 nM) insensitive (FIG. 6B). Similar recordings were made from 4 cells expressing Slo-1 alone and 6 cells co-expressing Slo-1/BKB3. Scale bars represent InA and 200 ms.
# Slo-1 = target: T2, Slo-1 (Homo sapiens, UniProt Q12791); test: Whole-cell voltage-clamp of membrane currents in HEK293 cells expressing Slo-1 alone; format: cell-based; conditions: 250 ms depolarizing steps from holding potential -80 mV; for inhibition (block) of membrane currents: CTX 100 nM
# T2 construct: expressed in transfected cells; host or cells: HEK293
# Method: as §1
# T2 sequence (Q12791 whole entry): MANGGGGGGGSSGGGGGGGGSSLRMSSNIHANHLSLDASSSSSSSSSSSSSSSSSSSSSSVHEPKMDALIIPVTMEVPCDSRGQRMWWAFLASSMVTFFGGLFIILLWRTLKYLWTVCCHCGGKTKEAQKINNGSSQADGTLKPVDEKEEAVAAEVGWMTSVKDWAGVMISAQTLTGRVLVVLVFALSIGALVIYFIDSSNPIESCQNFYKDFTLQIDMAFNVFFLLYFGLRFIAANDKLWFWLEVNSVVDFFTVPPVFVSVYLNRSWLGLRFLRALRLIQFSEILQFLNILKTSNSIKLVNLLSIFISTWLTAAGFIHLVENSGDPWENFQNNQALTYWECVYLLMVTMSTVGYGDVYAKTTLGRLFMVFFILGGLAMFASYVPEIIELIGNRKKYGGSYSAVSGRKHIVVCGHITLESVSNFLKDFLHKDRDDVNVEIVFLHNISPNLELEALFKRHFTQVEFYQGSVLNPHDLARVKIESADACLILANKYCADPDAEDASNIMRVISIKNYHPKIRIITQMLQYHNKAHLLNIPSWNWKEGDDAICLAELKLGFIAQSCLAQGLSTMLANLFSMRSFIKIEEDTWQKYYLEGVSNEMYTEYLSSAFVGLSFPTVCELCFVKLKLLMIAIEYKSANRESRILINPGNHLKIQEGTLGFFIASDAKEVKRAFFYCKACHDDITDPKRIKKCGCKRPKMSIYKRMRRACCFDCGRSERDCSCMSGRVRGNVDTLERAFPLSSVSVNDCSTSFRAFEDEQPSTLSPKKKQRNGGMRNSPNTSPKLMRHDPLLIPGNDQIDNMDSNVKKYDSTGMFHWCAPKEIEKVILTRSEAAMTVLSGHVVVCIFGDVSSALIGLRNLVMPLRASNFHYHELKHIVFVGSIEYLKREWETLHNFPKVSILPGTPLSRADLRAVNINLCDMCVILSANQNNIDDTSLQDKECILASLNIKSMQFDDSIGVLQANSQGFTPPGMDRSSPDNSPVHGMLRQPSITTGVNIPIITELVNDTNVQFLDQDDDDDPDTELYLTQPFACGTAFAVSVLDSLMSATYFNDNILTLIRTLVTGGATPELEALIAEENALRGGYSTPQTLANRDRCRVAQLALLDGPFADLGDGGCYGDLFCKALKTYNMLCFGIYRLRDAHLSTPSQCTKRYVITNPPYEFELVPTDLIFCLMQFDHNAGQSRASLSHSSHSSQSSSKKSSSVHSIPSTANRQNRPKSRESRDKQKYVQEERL
# T1 sequence (Q12791 whole entry): as above
# T1 sequence (Q86W47 whole entry partner): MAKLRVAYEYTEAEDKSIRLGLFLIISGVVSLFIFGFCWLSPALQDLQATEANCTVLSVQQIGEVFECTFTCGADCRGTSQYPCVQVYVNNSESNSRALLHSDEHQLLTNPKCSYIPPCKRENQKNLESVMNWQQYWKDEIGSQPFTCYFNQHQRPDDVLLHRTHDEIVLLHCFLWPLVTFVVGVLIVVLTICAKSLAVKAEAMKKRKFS
Molecule,sensitivity of membrane currents (Slo-1/BKB3; TEA 5 mM),inhibition of membrane currents (Slo-1; TEA 5 mM),sensitivity (block) of membrane currents (Slo-1/BKB3),sensitivity (block) of membrane currents (Slo-1/BKB3; listed as charybdotoxin),inhibition (block) of membrane currents (Slo-1),inhibition (block) of membrane currents (Slo-1; listed as charybdotoxin)
CC[N+](CC)(CC)CC [TEA],sensitive,strongly inhibited,,,,
charybdotoxin [CTX],,,insensitive,virtually unblocked,strongly inhibited,almost completely blocked

# — US7351553B2, “BK beta subunits of Slo family potassium channels” (Icagen, Inc., priority 1999, dated 2008)
